Experimental data taken from US20130007923A1.

Tests used:
[1] = target: BBMV proteins (brush border membrane vesicles) from fall armyworm (FAW; Spodoptera frugiperda) larval midgut (Spodoptera frugiperda); assay: homologous competition: unlabeled Cry1Da against 0.5 nM 125I Cry1Da on FAW BBMVs
[2] = target: BBMV proteins (brush border membrane vesicles) from fall armyworm (FAW; Spodoptera frugiperda) larval midgut (Spodoptera frugiperda); assay: heterologous competition: unlabeled Cry1Ca against 0.5 nM 125I Cry1Da (competitor pair Cry1Da/BBMV) on FAW BBMVs; reflects no displacement at Cry1Da sites, not lack of Cry1Ca binding to BBMVs

Substance	IC50 [1]	IC50 [2]
Cry1Da (purified truncated Cry toxin) (from UniProt P19415 28-594)	1.5 nM	
Cry1Ca (purified truncated Cry toxin) (from UniProt P0A376 28-618)		> 1000 nM
